Assay [1] has as its target T1, human LAG-3-His (LAG-3 with C-terminal polyhistidine tag, ACROBiosystems) (human, UniProt P18627 23-450).
T1 construct: Bought protein; also called recombinant LAG-3-His
T1 sequence (looked up): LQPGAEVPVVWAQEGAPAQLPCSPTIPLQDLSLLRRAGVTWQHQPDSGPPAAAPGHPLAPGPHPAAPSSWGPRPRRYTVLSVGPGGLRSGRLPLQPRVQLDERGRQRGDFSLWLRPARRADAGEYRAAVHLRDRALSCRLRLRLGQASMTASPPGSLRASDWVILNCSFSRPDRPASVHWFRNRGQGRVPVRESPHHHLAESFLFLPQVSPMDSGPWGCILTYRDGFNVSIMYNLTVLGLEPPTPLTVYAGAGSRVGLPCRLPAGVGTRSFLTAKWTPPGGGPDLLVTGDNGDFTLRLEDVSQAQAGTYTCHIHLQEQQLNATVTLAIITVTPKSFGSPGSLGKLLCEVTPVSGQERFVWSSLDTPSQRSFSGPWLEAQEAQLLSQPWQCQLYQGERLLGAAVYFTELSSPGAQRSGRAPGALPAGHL
Nature of the assay: ELISA: LAG-3-His coated, detection anti-Tlc antibody-HRP (an antibody without lipocalin part would not be seen by this detection; see Figure 3C for anti-Fc detection).

Assay [2] addresses T2, human LAG-3-Fc fusion (human LAG-3 extracellular domain fused to human IgG1 Fc fragment, R&D Systems) (human, UniProt P18627 23-450, biotinylated in Example 5 (sites not given)).
T2 construct: extracellular domain; also called huLAG-3-Fc; biotinylated human LAG-3-Fc; not shown: human IgG1 Fc fragment
T2 sequence (looked up): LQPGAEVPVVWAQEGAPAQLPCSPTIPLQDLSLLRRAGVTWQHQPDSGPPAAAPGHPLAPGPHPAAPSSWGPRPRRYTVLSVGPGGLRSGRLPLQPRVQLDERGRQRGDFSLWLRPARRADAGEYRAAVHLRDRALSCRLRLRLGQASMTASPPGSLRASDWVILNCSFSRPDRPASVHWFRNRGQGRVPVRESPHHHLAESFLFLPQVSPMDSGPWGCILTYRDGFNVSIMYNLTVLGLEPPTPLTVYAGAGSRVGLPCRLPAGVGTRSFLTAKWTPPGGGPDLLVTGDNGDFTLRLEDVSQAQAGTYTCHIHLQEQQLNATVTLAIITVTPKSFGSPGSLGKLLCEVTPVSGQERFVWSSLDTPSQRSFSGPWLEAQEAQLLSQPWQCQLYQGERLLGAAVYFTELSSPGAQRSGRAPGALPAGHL
The assay can be described thus: dual-binding ELISA: PD-1-His coated, antibody titrated from 250 nM, then biotinylated huLAG-3-Fc 2 ug/mL, detection Extravidin-HRP, RFU. On the procedure: The plates were washed five times after each incubation step with 100 μL PBS-0.05% T. The plates were blocked with 2% BSA (w/v) in PBS-0.1% T for 1 h at room temperature and subsequently washed again. Different concentrations of the fusion polypeptides were added to the wells and incubated for 1 h at room temperature, followed by a wash step. […] After an additional wash step, fluorogenic HRP substrate (QuantaBlu, Thermo) was added to each well and the fluorescence intensity was detected using a fluorescence microplate reader.

B1: PD-1 specific benchmark antibody (SEQ ID NOs: 3 and 4) (antibody, human IgG4 S228P, kappa, V domains shown)
VH: QVQLVESGGGVVQPGRSLRLDCKASGITFSNSGMHWVRQAPGKGLEWVAVIWYDGSKRYYADSVKGRFTISRDNSKNTLFLQMNSLRAEDTAVYYCATNDDYWGQGTLVTVSS
VL: EIVLTQSPATLSLSPGERATLSCRASQSVSSYLAWYQQKPGQAPRLLIYDASNRATGIPARFSGSGSGTDFTLTISSLEPEDFAVYYCQQSSNWPRTFGQGTKVEIKR
notes: Engineered IgG4 backbone with the S228P mutation; also called PD-1-specific antibody
B1: the binding result in assay [1] and in assay [2] was “no binding (tested: 250 nM)” in each case.

The values above are taken from patent US20190010231A1 (Pieris, published 2019).
